Results from the supplement of paper PMC7125110.
± gives the standard error. For part of these data: Variants at the floor of the assay were thinned out.

B1: glmS ribozyme (parent)
chain: AUAAAAGCGCCAGAACUACAGAAAUGUAGUUGACGAGGAGGAGGUUUAUCGAAUUUUCGGCGGAUGCCUCCAAA

Tests used:
Conditions in all cases: with glucosamine-6-phosphate
glucosamine-6-phosphate [1] = variants of: B1; experiment: kcat; higher = faster cleavage; RNA array
Outline: (§1)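 Using a hybridised Cy3 probe at 37 °C, barcoded ribozyme variants transcribed in situ by E. coli RNA polymerase on sequenced MiSeq chips were monitored across tiles imaged over ~14 h. The flow contained glucosamine-6-phosphate from 40 μM to 10 mM in HEPES/KCl/Mg(OAc)2 buffer. Signals were normalised to baseline and to non-cleaving reference variants before per-tile medians were fit to one- or two-exponential decays to yield kobs. Weighted Michaelis–Menten fits across concentrations gave kcat and KM.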

glucosamine-6-phosphate [2] = variants of: B1; experiment: KM; higher = weaker cofactor use; RNA array
Outline: as §1

glucosamine-6-phosphate [3] = variants of: B1; experiment: self-cleavage kobs at 640 uM GlcN6P; higher = faster cleavage; RNA array
Outline: as §1

glucosamine-6-phosphate [4] = variants of: B1; experiment: self-cleavage kobs at 2500 uM GlcN6P; higher = faster cleavage; RNA array
Outline: as §1

glucosamine-6-phosphate [5] = variants of: B1; experiment: self-cleavage kobs at 10000 uM GlcN6P; higher = faster cleavage; RNA array
Outline: as §1

glucosamine-6-phosphate [6] = variants of: B1; experiment: self-cleavage kobs at 40 uM GlcN6P; higher = faster cleavage; RNA array
Outline: as §1

glucosamine-6-phosphate [7] = variants of: B1; experiment: self-cleavage kobs at 160 uM GlcN6P; higher = faster cleavage; RNA array
Outline: as §1

## A6G U65G
glucosamine-6-phosphate [1]
  kcat: 0.000323 ± 2.1e-05 s⁻¹
glucosamine-6-phosphate [2]
  KM: 3580 ± 500 µM
glucosamine-6-phosphate [3]
  self-cleavage kobs at 640 uM GlcN6P: 4.35e-05 ± 1e-05 s⁻¹
glucosamine-6-phosphate [4]
  self-cleavage kobs at 2500 uM GlcN6P: 0.000141 ± 1.6e-05 s⁻¹
glucosamine-6-phosphate [5]
  self-cleavage kobs at 10000 uM GlcN6P: 0.000234 ± 2e-05 s⁻¹

## C34G C71G
glucosamine-6-phosphate [1]
  kcat: 2.07e-05 ± 5.7e-06 s⁻¹

## G13A C67A C68U C70G
glucosamine-6-phosphate [1]
  kcat: < 1e-05 s⁻¹
glucosamine-6-phosphate [6]
  self-cleavage kobs at 40 uM GlcN6P: < 1e-05 s⁻¹

## A42G G44A
glucosamine-6-phosphate [1]
  kcat: 0.00011 ± 2.6e-05 s⁻¹
glucosamine-6-phosphate [4]
  self-cleavage kobs at 2500 uM GlcN6P: 7.65e-05 ± 1.8e-05 s⁻¹
glucosamine-6-phosphate [5]
  self-cleavage kobs at 10000 uM GlcN6P: 8.49e-05 ± 1.1e-05 s⁻¹

## U30A U65A
glucosamine-6-phosphate [1]
  kcat: 0.000636 ± 0.00012 s⁻¹
glucosamine-6-phosphate [2]
  KM: 2480 ± 800 µM
glucosamine-6-phosphate [7]
  self-cleavage kobs at 160 uM GlcN6P: 5.83e-05 ± 2e-05 s⁻¹
glucosamine-6-phosphate [3]
  self-cleavage kobs at 640 uM GlcN6P: 0.000114 ± 2.4e-05 s⁻¹
glucosamine-6-phosphate [4]
  self-cleavage kobs at 2500 uM GlcN6P: 0.000384 ± 8.4e-05 s⁻¹
glucosamine-6-phosphate [5]
  self-cleavage kobs at 10000 uM GlcN6P: 0.000495 ± 8.6e-05 s⁻¹

## G40A U55C A64G
glucosamine-6-phosphate [1]
  kcat: 4.82e-05 ± 7.4e-06 s⁻¹
glucosamine-6-phosphate [2]
  KM: 7420 ± 2400 µM

## U47C C68A
glucosamine-6-phosphate [1]
  kcat: 3.98e-05 ± 6.2e-06 s⁻¹
glucosamine-6-phosphate [4]
  self-cleavage kobs at 2500 uM GlcN6P: 4.92e-05 ± 1.8e-05 s⁻¹
glucosamine-6-phosphate [5]
  self-cleavage kobs at 10000 uM GlcN6P: 3.44e-05 ± 1.2e-05 s⁻¹

## A6U A12U
glucosamine-6-phosphate [1]
  kcat: 0.000909 ± 9.6e-05 s⁻¹
glucosamine-6-phosphate [2]
  KM: 2840 ± 510 µM
glucosamine-6-phosphate [7]
  self-cleavage kobs at 160 uM GlcN6P: 6.32e-05 ± 1.6e-05 s⁻¹
glucosamine-6-phosphate [3]
  self-cleavage kobs at 640 uM GlcN6P: 0.000158 ± 2.3e-05 s⁻¹
glucosamine-6-phosphate [4]
  self-cleavage kobs at 2500 uM GlcN6P: 0.000426 ± 4.8e-05 s⁻¹
glucosamine-6-phosphate [5]
  self-cleavage kobs at 10000 uM GlcN6P: 0.000715 ± 9.1e-05 s⁻¹

## A15U C58A
glucosamine-6-phosphate [1]
  kcat: 0.000154 ± 5.6e-06 s⁻¹
glucosamine-6-phosphate [2]
  KM: 3640 ± 360 µM
glucosamine-6-phosphate [4]
  self-cleavage kobs at 2500 uM GlcN6P: 6.38e-05 ± 1.2e-05 s⁻¹
glucosamine-6-phosphate [5]
  self-cleavage kobs at 10000 uM GlcN6P: 0.000113 ± 1e-05 s⁻¹

## C10A G60C
glucosamine-6-phosphate [1]
  kcat: < 1e-05 s⁻¹
glucosamine-6-phosphate [3]
  self-cleavage kobs at 640 uM GlcN6P: < 1e-05 s⁻¹

## G63C C70A
glucosamine-6-phosphate [1]
  kcat: 1.89e-05 ± 5.1e-06 s⁻¹

## G13U A15C
glucosamine-6-phosphate [1]
  kcat: 0.000268 ± 2.8e-05 s⁻¹
glucosamine-6-phosphate [2]
  KM: 2790 ± 550 µM
glucosamine-6-phosphate [3]
  self-cleavage kobs at 640 uM GlcN6P: 4.71e-05 ± 7.8e-06 s⁻¹
glucosamine-6-phosphate [4]
  self-cleavage kobs at 2500 uM GlcN6P: 0.000142 ± 1.9e-05 s⁻¹
glucosamine-6-phosphate [5]
  self-cleavage kobs at 10000 uM GlcN6P: 0.000202 ± 2.4e-05 s⁻¹

## G13A A39C
glucosamine-6-phosphate [1]
  kcat: 0.000118 ± 1.9e-05 s⁻¹
glucosamine-6-phosphate [2]
  KM: 3740 ± 1200 µM
glucosamine-6-phosphate [4]
  self-cleavage kobs at 2500 uM GlcN6P: 4.55e-05 ± 7.4e-06 s⁻¹
glucosamine-6-phosphate [5]
  self-cleavage kobs at 10000 uM GlcN6P: 8.77e-05 ± 1.6e-05 s⁻¹

## C16A G37A
glucosamine-6-phosphate [1]
  kcat: 7.68e-05 ± 2.6e-06 s⁻¹
glucosamine-6-phosphate [2]
  KM: 999 ± 160 µM
glucosamine-6-phosphate [4]
  self-cleavage kobs at 2500 uM GlcN6P: 5.79e-05 ± 1.2e-05 s⁻¹
glucosamine-6-phosphate [5]
  self-cleavage kobs at 10000 uM GlcN6P: 6.89e-05 ± 9.4e-06 s⁻¹

## A6G A39C
glucosamine-6-phosphate [1]
  kcat: 0.00012 ± 4e-06 s⁻¹
glucosamine-6-phosphate [2]
  KM: 1580 ± 180 µM
glucosamine-6-phosphate [3]
  self-cleavage kobs at 640 uM GlcN6P: 3.27e-05 ± 8.5e-06 s⁻¹
glucosamine-6-phosphate [4]
  self-cleavage kobs at 2500 uM GlcN6P: 7.92e-05 ± 1.4e-05 s⁻¹
glucosamine-6-phosphate [5]
  self-cleavage kobs at 10000 uM GlcN6P: 0.000103 ± 8.7e-06 s⁻¹

## A12U U69G C70G
glucosamine-6-phosphate [1]
  kcat: 2.63e-05 ± 1.3e-05 s⁻¹
glucosamine-6-phosphate [7]
  self-cleavage kobs at 160 uM GlcN6P: < 1e-05 s⁻¹

## G62A
glucosamine-6-phosphate [1]
  kcat: < 1e-05 s⁻¹
glucosamine-6-phosphate [6]
  self-cleavage kobs at 40 uM GlcN6P: < 1e-05 s⁻¹
glucosamine-6-phosphate [5]
  self-cleavage kobs at 10000 uM GlcN6P: < 1e-05 s⁻¹

## U46G A64G
glucosamine-6-phosphate [1]
  kcat: 0.0154 ± 0.0048 s⁻¹
glucosamine-6-phosphate [2]
  KM: 4300 ± 1900 µM
glucosamine-6-phosphate [6]
  self-cleavage kobs at 40 uM GlcN6P: 0.000157 ± 2.3e-05 s⁻¹
glucosamine-6-phosphate [3]
  self-cleavage kobs at 640 uM GlcN6P: 0.00216 ± 0.00079 s⁻¹
glucosamine-6-phosphate [4]
  self-cleavage kobs at 2500 uM GlcN6P: 0.00387 ± 0.001 s⁻¹
glucosamine-6-phosphate [5]
  self-cleavage kobs at 10000 uM GlcN6P: 0.0119 ± 0.0016 s⁻¹

## U45C C67U C68A
glucosamine-6-phosphate [1]
  kcat: 4.01e-05 ± 3.3e-06 s⁻¹
glucosamine-6-phosphate [2]
  KM: 533 ± 230 µM

## A42U C71A
glucosamine-6-phosphate [1]
  kcat: 0.000146 ± 7.1e-05 s⁻¹
glucosamine-6-phosphate [4]
  self-cleavage kobs at 2500 uM GlcN6P: 3.16e-05 ± 8.6e-06 s⁻¹
glucosamine-6-phosphate [5]
  self-cleavage kobs at 10000 uM GlcN6P: 8.25e-05 ± 2.2e-05 s⁻¹

## U65G C70G
glucosamine-6-phosphate [1]
  kcat: 0.000265 ± 5.4e-05 s⁻¹
glucosamine-6-phosphate [2]
  KM: 1470 ± 600 µM
glucosamine-6-phosphate [7]
  self-cleavage kobs at 160 uM GlcN6P: 4.76e-05 ± 7.4e-06 s⁻¹
glucosamine-6-phosphate [3]
  self-cleavage kobs at 640 uM GlcN6P: 7.04e-05 ± 6.8e-06 s⁻¹
glucosamine-6-phosphate [4]
  self-cleavage kobs at 2500 uM GlcN6P: 0.000176 ± 1.3e-05 s⁻¹
glucosamine-6-phosphate [5]
  self-cleavage kobs at 10000 uM GlcN6P: 0.000228 ± 2.3e-05 s⁻¹
